The target of assay [1] is T1, Weel (Schizosaccharomyces pombe, UniProt P07527 1-877).
T1 construct: Endogenous protein co-purified from S. pombe cells and detected with antibodies to Weel; also called kinase Weel; native Weel protein
T1 sequence (looked up): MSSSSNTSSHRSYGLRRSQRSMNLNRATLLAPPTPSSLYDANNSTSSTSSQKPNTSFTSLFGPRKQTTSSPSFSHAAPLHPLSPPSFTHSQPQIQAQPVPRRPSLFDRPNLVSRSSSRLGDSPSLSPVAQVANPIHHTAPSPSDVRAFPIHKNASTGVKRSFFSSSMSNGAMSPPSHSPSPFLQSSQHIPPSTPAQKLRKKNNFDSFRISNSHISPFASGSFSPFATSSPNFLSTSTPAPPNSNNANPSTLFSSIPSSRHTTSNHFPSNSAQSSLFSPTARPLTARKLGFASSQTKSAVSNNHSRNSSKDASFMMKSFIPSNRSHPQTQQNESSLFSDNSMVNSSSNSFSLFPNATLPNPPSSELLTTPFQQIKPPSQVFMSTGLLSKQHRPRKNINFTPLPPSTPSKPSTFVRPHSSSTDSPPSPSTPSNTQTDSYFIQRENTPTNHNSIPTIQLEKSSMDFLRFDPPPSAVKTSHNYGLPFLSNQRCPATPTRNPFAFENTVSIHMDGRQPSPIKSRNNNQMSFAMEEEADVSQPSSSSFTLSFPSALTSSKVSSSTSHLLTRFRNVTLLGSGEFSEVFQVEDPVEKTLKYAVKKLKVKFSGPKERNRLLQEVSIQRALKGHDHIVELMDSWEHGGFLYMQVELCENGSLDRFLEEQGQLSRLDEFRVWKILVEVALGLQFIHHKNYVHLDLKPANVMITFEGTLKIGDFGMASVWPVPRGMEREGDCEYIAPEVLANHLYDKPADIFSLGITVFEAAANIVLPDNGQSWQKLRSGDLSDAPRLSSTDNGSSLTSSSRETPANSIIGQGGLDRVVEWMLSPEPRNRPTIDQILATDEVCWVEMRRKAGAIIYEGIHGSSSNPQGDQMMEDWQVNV
As to the kind of experiment: GSH-Sepharose purification of GST fusion expressed in S. pombe, immunoblot with antibodies to Weel. The method, then: (§1) FIG. 2D is a photograph of an analysis of proteins which illustrates that Weel interacts with GST:cds1⁺ but not GST:Chk1 in vivo. Strains carrying integrated nmt1:GST:chk1⁺ or nmt1:GST:cds1⁺ constructs were grown in minimal medium (EMM2) without thiamine at 30° C. for 16 hr to induce expression of GST fusion proteins. Cells were lysed and GST fusion proteins purified with GSH-Sepharose. After extensive washing, samples were resolved by 10% SDS-polyacrylamide gel electrophoresis and subjected to immunoblotting with antibodies to Weel, Cdc25 and GST. A ˜110 kDa protein corresponding to Weel was detected in the GST:Cds1 sample, whereas a ˜80 kDa protein corresponding to Cdc25 was detected in the GST:Chk1 sample. The ˜110 kDa protein was not detected in samples prepared from Δweel cells. GST:Cds1 and GST:Chk1 migrate at positions corresponding to ˜82 and ˜80 kDa, respectively.
(§2) As a control, a strain that expressed GST:Chk1 was used. The GST fusion proteins were purified with GSH-Sepharose and analyzed by immunoblotting. Cdc25 (but not Weel) associated with GST:Chk1, whereas Weel (but not Cdc25) associated with GST:Cds1 (FIG. 2D).
(In general: A western blot detects proteins with antibodies after separation by electrophoresis.)

Assay [2] addresses T2, Cdc25 (Schizosaccharomyces pombe, UniProt P06652 1-596).
T2 construct: Endogenous protein co-purified from S. pombe cells and detected with antibodies to Cdc25
T2 sequence (looked up): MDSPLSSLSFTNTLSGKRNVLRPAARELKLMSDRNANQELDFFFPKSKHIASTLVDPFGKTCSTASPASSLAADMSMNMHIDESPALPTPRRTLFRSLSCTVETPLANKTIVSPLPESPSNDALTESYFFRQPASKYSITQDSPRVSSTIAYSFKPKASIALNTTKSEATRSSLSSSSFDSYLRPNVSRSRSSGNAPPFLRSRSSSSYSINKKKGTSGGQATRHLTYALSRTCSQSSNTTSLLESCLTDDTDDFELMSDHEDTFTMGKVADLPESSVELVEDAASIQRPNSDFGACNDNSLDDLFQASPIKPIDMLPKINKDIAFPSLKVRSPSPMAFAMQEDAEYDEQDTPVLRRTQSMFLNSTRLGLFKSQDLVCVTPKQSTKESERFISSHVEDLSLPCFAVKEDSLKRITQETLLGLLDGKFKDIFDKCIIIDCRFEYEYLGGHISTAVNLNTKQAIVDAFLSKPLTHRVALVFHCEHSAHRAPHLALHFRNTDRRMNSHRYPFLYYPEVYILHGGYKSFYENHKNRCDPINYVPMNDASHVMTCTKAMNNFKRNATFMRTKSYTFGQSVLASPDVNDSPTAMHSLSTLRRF
As to the kind of experiment: GSH-Sepharose purification of GST fusion expressed in S. pombe, immunoblot. The method, then:
as §1, §2

For assay [3], the target named is T2, Cdc25. As to the kind of experiment: GSH-Sepharose purification of GST fusion expressed in S. pombe, immunoblot with antibodies to Cdc25. The method, then:
as §1, §2

For assay [4], the target named is T1, Weel. As to the kind of experiment: GSH-Sepharose purification of GST fusion expressed in S. pombe, immunoblot. The method, then:
as §1, §2

B1: GST:Chk1 (other, Schizosaccharomyces pombe, UniProt P34208 1-496, looked up)
chain: MAQKLDNFPYHIGREIGTGAFASVRLCYDDNAKIYAVKFVNKKHATSCMNAGVWARRMASEIQLHKLCNGHKNIIHFYNTAENPQWRWVVLEFAQGGDLFDKIEPDVGIDEDVAQFYFAQLMEGISFMHSKGVAHRDLKPENILLDYNGNLKISDFGFASLFSYKGKSRLLNSPVGSPPYAAPEITQQYDGSKVDVWSCGIILFALLLGNTPWDEAISNTGDYLLYKKQCERPSYHPWNLLSPGAYSIITGMLRSDPFKRYSVKHVVQHPWLTSSTPFRTKNGNCADPVALASRLMLKLRIDLDKPRLASSRASQNDSGFSMTQPAFKKNDQKELDRVEVYGALSQPVQLNKNIDVTEILEKDPSLSQFCENEGFIKRLAKKAKNFYEICPPERLTRFYSRASRETIIDHLYDSLRLLAISVTMKYVRNQTILYVNLHDKRKCLLQGVIELTNLGHNLELINFIKRNGDPLEWRKFFKNVVSSIGKPIVLTDVSQN
notes: Expressed in S. pombe from the integrated nmt1:GST:chk1+ construct; Migrates at ~80 kDa; not shown: glutathione-S-transferase
Turning to B1, the binding result in the assay with Weel [1] is “no binding”; in the assay with Cdc25 [2], “binds”.

B2: GST:Cds1 (other, Schizosaccharomyces pombe, UniProt Q09170 1-460, looked up)
chain: MEEPEEATQATQEAPLHVSQNIAKQVVNNENVFMKLVMTRMLDGKTEVIPLTTDVHNGFWRFGRHKSCEVVLNGPRVSNFHFEIYQGHRNDSDESENVVFLHDHSSNGTFLNFERLAKNSRTILSNGDEIRIGLGVPKDEISFLCQVPVKHSRDSQKNMIKSENSHYEIIRTLGSGTFAVVKLAVEVNSGKWYAIKIINKRKILLTSSEKRATEMFQREIDILKSLHHPGVVQCHEIFENDDELFIVMEYVEGGDLMDFLIANGSIDEQDCKPLLKQLLETLLHLHKQGVTHRDIKPENILITNDFHLKISDFGLAKVIHGTGTFLETFCGTMGYLAPEVLKSKNVNLDGGYDDKVDIWSLGCVLYVMLTASIPFASSSQAKCIELISKGAYPIEPLLENEISEEGIDLINRMLEINPEKRISESEALQHPWFYTVSTHEHRTPPSSSEHEATEQLNSSS
notes: Expressed in S. pombe from the integrated nmt1:GST:cds1+ construct; Migrates at ~82 kDa; not shown: glutathione-S-transferase
With B2, the binding result is given as “no binding” with Cdc25 [3] and “binds” with Weel [4].

The values are drawn from US20030216563A1 (Scripps Research, published 2003).
